{"source": "paper PMC11446282", "molecules": {"B1": {"name": "IER2_HUMAN (protein, UniProt Q9BTL4 1-223, looked up)", "Immediate early response gene …": "MEVQKEAQRIMTLSVWKMYHSRMQRGGLRLHRSLQLSLVMRSARELYLSAKVEALEPEVSLPAALPSDPRLHPPREAESTAETATPDGEHPFPEPMDTQEAPTAEETSACCAPRPAKVSRKRRSSSLSDGGDAGLVPSKKARLEEKEEEEGASSEVADRLQPPPAQAEGAFPNLARVLQRRFSGLLNCSPAAPPTAPPACEAKPACRPADSMLNVLVRAVVAF"}, "B2": {"name": "SIK2_HUMAN (protein, UniProt Q9H0K1 1-926, looked up)", "Serine/threonine-protein …": "MVMADGPRHLQRGPVRVGFYDIEGTLGKGNFAVVKLGRHRITKTEVAIKIIDKSQLDAVNLEKIYREVQIMKMLDHPHIIKLYQVMETKSMLYLVTEYAKNGEIFDYLANHGRLNESEARRKFWQILSAVDYCHGRKIVHRDLKAENLLLDNNMNIKIADFGFGNFFKSGELLATWCGSPPYAAPEVFEGQQYEGPQLDIWSMGVVLYVLVCGALPFDGPTLPILRQRVLEGRFRIPYFMSEDCEHLIRRMLVLDPSKRLTIAQIKEHKWMLIEVPVQRPVLYPQEQENEPSIGEFNEQVLRLMHSLGIDQQKTIESLQNKSYNHFAAIYFLLVERLKSHRSSFPVEQRLDGRQRRPSTIAEQTVAKAQTVGLPVTMHSPNMRLLRSALLPQASNVEAFSFPASGCQAEAAFMEEECVDTPKVNGCLLDPVPPVLVRKGCQSLPSNMMETSIDEGLETEGEAEEDPAHAFEAFQSTRSGQRRHTLSEVTNQLVVMPGAGKIFSMNDSPSLDSVDSEYDMGSVQRDLNFLEDNPSLKDIMLANQPSPRMTSPFISLRPTNPAMQALSSQKREVHNRSPVSFREGRRASDTSLTQGIVAFRQHLQNLARTKGILELNKVQLLYEQIGPEADPNLAPAAPQLQDLASSCPQEEVSQQQESVSTLPASVHPQLSPRQSLETQYLQHRLQKPSLLSKAQNTCQLYCKEPPRSLEQQLQEHRLQQKRLFLQKQSQLQAYFNQMQIAESSYPQPSQQLPLPRQETPPPSQQAPPFSLTQPLSPVLEPSSEQMQYSPFLSQYQEMQLQPLPSTSGPRAAPPLPTQLQQQQPPPPPPPPPPRQPGAAPAPLQFSYQTCELPSAASPAPDYPTPCQYPVDGAQQSDLTGPDCPRSPGLQEAPSSYDPLALSELPGLFDCEMLDAVDPQHNGYVLVN"}, "B3": {"name": "AIFM2_HUMAN (protein, UniProt Q9BRQ8 2-373, looked up)", "Ferroptosis suppressor …": "GSQVSVESGALHVVIVGGGFGGIAAASQLQALNVPFMLVDMKDSFHHNVAALRASVETGFAKKTFISYSVTFKDNFRQGLVVGIDLKNQMVLLQGGEALPFSHLILATGSTGPFPGKFNEVSSQQAAIQAYEDMVRQVQRSRFIVVVGGGSAGVEMAAEIKTEYPEKEVTLIHSQVALADKELLPSVRQEVKEILLRKGVQLLLSERVSNLEELPLNEYREYIKVQTDKGTEVATNLVILCTGIKINSSAYRKAFESRLASSGALRVNEHLQVEGHSNVYAIGDCADVRTPKMAYLAGLHANIAVANIVNSVKQRPLQAYKPGALTFLLSMGRNDGVGQISGFYVGRLMVRLTKSRDLFVSTSWKTMRQSPP"}}, "tested_on": "B55α interactors", "assay": "MS analysis of B55α WT, V228A, I284A, S287A and D340A immunopurifications", "assay_type": "binding, human", "details": "log2 ratio of interactor abundance, 4 replicates each, normalised to bait B55α; for log2_ratio_D340_WT: B55α D340A vs WT immunopurification; for log2_ratio I284_WT: B55α I284A vs WT immunopurification; for log2_ratio S287_WT: B55α S287A vs WT immunopurification; for log2_ratio V228_WT: B55α V228A vs WT immunopurification", "method": "Standard cloning techniques were used throughout. Point mutations were introduced by whole plasmid polymerase chain reaction (PCR). All constructs were fully sequenced. Synthetic DNA was purchased from GeneArt, Life Technologies and cloned into pcDNA5/FRT/TO (Invitrogen) expression vector containing YFP, resulting in the indicated YFP fusion proteins. These constructs were transiently transfected into HeLa cells 24 hours before harvesting cells. Cells were lysed in lysis buffer [50 mM tris-HCl (pH 7.5), 50 mM NaCl, 1 mM EDTA, 1 mM […], and 0.1% NP-40]. Complexes were immunoprecipitated at 4°C in lysis buffer with green fluorescent protein (GFP)–Trap (ChromoTek) and washed in lysis buffer. Precipitated protein complexes were washed three times in lysis buffer, eluted in 2× SDS sample buffer, and subjected to Western blotting or MS as indicated.\nPull-downs were analyzed on a Q-Exactive Plus quadrupole or Fusion Orbitrap Lumos mass spectrometer (Thermo Fisher Scientific) equipped with Easy-nLC 1000 or […] (Thermo Fisher Scientific) and nanospray source (Thermo Fisher Scientific).\nStatic modifications included carbamidomethylcysteine, and variable modifications included oxidized methionine and STY phosphorylation. Searches were filtered using orthogonal measures including mass measurement accuracy (±3 parts per million), Xcorr for charges from +2 to +4, and dCn targeting a <1% false discovery rate at the peptide level. Quantification of LC-MS/MS spectra was performed using MassChroQ ([57]) and the iBAQ method ([58]). All data were analyzed using R 4.3.0. Missing values were imputed from a normal distribution. […] In each dataset, the abundance of the protein of interest was normalized to be equal across all samples. Statistical analyses were done using a two-tailed Student’s t test."}
{"molecule": "B1", "values": [{"measurement": "log2_ratio_D340_WT", "result": -8.18}, {"measurement": "log2_ratio I284_WT", "result": -0.03}, {"measurement": "log2_ratio S287_WT", "result": 0.35}, {"measurement": "log2_ratio V228_WT", "result": -2.82}]}
{"molecule": "B2", "values": [{"measurement": "log2_ratio_D340_WT", "result": 2.13}, {"measurement": "log2_ratio I284_WT", "result": -0.65}, {"measurement": "log2_ratio S287_WT", "result": -1.90}, {"measurement": "log2_ratio V228_WT", "result": -3.24}]}
{"molecule": "B3", "values": [{"measurement": "log2_ratio_D340_WT", "result": -0.14}, {"measurement": "log2_ratio I284_WT", "result": -0.15}, {"measurement": "log2_ratio S287_WT", "result": 0.33}, {"measurement": "log2_ratio V228_WT", "result": -0.53}]}
